The target in this test is T1, HLA-Cw3 on target cells.
T1 construct: also called HLA-Cw*0304
The test is described as follows: inferred from FW/92 T cell recognition of peptide-pulsed target cells with lactacystin (ELISPOT).

Consider one molecule from patent US20060204507A1 (LUDWIG INSTITUTE FOR CANCER RESEARCH, published 2006).

On to LAMPFATPM [Nonapeptide consisting of amino acids 13-21 of SEQ ID NO: 4], for which the binding result was “binds”.
